The source of these data is patent US7906477.

The target in the test is human glandular kallikrein 2 (hK2), enzymatically active (human), P20151. Kind of test: cell-based or functional assay.

Square brackets hold non-standard residues; d marks the D form. Ends that are not written are not given here. Tyr(3-NO2) = N[C@@H](Cc1ccc(O)c([N+](=O)[O-])c1)C(=O)O; Abz = aminobenzoic acid; Dap = NC[C@H](N)C(=O)O

Turning to [Tyr(3-NO2)]GKAFRL[Dap]FK(Abz)-{PEGA resin} [Y′GKAFRL-Dap-F-K′-PEGA (SEQ ID NO:53)], the time required to generate clearly detectable fluorescence on the beads was in the range of 4 to 5 h.
